According to publication PMC9883506, “Self-recycling and partially conservative replication of mycobacterial methylmannose polysaccharides” (Communications Biology, 2023):

Columns and labels:
MeT1 = target: T1, MeT1 (Mycolicibacterium hassiacum, UniProt K5B7F3); experiment: SahH-coupled DTNB assay of SAH release; type: biochemical; settings: 100 μM MnCl2, BTP pH 7.5
T1 construct: full length, C-terminal His6 tag (pET30a), synthetic gene, E. coli BL21(DE3)

[1] = substrate: CCCO[C@H]1O[C@H](CO)[C@@H](O[C@H]2O[C@H](CO)[C@@H](O[C@H]3O[C@H](CO)[C@@H](O[C@H]4O[C@H](CO)[C@@H](O)[C@H](OC)[C@@H]4O)[C@H](OC)[C@@H]3O)[C@H](OC)[C@@H]2O)[C@H](OC)[C@@H]1O; experiment: coupled PK/LDH NADH assay of GDP release; type: biochemical, Mycolicibacterium hassiacum; settings: 2.5 mM GDP-Man, 7.5 mM MgCl2, 5 mM NaCl, 0.1% Triton X-100, 50 mM BTP pH 8.5, 37 °C, acceptor
From the text: (§1) coupled PK/LDH NADH assay of GDP release on ManT

[2] = substrate: Nc1nc2c(ncn2[C@@H]2O[C@H](COP(=O)(O)OP(=O)(O)O[C@H]3O[C@H](CO)[C@@H](O)[C@H](O)[C@@H]3O)[C@@H](O)[C@H]2O)c(=O)[nH]1; experiment: coupled PK/LDH NADH assay of GDP release; type: biochemical, Mycolicibacterium hassiacum; settings: 0.1% Triton X-100, 50 mM BTP pH 8.5, 37 °C, donor
From the text: as §1

[3] = substrate: CCCO[C@H]1O[C@H](CO)[C@@H](O[C@H]2O[C@H](CO)[C@@H](O[C@H]3O[C@H](CO)[C@@H](O[C@H]4O[C@H](CO)[C@@H](O)[C@H](O)[C@@H]4O)[C@H](O)[C@@H]3O)[C@H](O)[C@@H]2O)[C@H](O)[C@@H]1O; experiment: coupled PK/LDH NADH assay of GDP release; type: biochemical, Mycolicibacterium hassiacum; settings: 5 mM GDP-Man, 7.5 mM MgCl2, 5 mM NaCl, 0.1% Triton X-100, 50 mM BTP pH 8.5, 37 °C, acceptor
From the text: as §1

[4] = 3.5 mM sMetMan4, 7.5 mM MgCl2, 5 mM NaCl
[5] = 1.5 mM sMetMan4, 7.5 mM MgCl2, 5 mM NaCl

T1 sequence (K5B7F3 whole entry): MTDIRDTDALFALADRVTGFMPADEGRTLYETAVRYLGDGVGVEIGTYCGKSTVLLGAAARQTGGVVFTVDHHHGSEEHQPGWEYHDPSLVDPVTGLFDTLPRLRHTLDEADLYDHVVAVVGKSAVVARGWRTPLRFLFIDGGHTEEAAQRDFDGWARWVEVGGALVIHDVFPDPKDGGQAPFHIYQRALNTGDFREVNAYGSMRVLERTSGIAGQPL

C[S+](CC[C@H](N)C(=O)O)C[C@H]1O[C@@H](n2cnc3c(N)ncnc32)[C@H](O)[C@@H]1O (stereo partly drawn) [SAM, S-adenosyl-methionine]
SahH-coupled DTNB assay of SAH release (MeT1; 1.5 mM oligomannoside acceptor, methyl donor): quantified from the S-adenosyl-homocysteine (SAH) released from SAM through a continuous

CO[C@@H]1[C@H](O)[C@@H](O[C@H]2[C@H](OC)[C@H](O)C(O)O[C@@H]2CO)O[C@H](CO)[C@H]1O (stereo partly drawn) [sMetMan2]
SahH-coupled DTNB assay of SAH release (MeT1; 1 mM SAM, 1.5 mM acceptor): The activity of MeT1 toward the synthetic substrate sMetMan2 and the two natural substrates

B1: ManT (Mycolicibacterium hassiacum DSM 44199; E313A) (protein)
chain: MRIALLSYRSKTHCGGQGVYVRHLSRELAELGHDVEVFSGQPYPEGLDPRVRLTKVPSLDLYREPDPFRIPRPSEIKTSIDLEELLTTWTAGFPEPKTFSLRAARVLAGRRGDFDVVHDNQCLGTGLLQIAKMGFPLVATVHHPITRDREVEVAAARWWRKPLVRRWYGFVEMQKRVARQIPELLTVSSASASDILTDFAVSPEQLHVVPLGVDTKLFQPREGRVRNRIIAIASADVPLKGVSHLLHAVARLRVERDVELQLVTKLEPNGPTEKLIAELGISDIVHTSSGLSDEELAALLASAEVACIPSLYAGFSLPAVEAMASGTPIVASRAGALPEVVGPDGECARLVTPADVDELTAVLGRLLDSPRELRRLGDNGRRRAVEVFSWQSVAAQTVAVYEKAIARVAAC
notes: full length, N-terminal His6 tag (pETM11, tag not removed), synthetic gene, E. coli BL21(DE3); purified with Triton X-100
Km [1]: 1180 ± 300 µM
kcat/Km [1]: 5 ± 1 M⁻¹ s⁻¹
Km [2, 4]: 1230 ± 300 µM
kcat/Km [2, 4]: 7 ± 2 M⁻¹ s⁻¹

B2: ManT (Mycolicibacterium hassiacum DSM 44199) (protein)
chain: MRIALLSYRSKTHCGGQGVYVRHLSRELAELGHDVEVFSGQPYPEGLDPRVRLTKVPSLDLYREPDPFRIPRPSEIKTSIDLEELLTTWTAGFPEPKTFSLRAARVLAGRRGDFDVVHDNQCLGTGLLQIAKMGFPLVATVHHPITRDREVEVAAARWWRKPLVRRWYGFVEMQKRVARQIPELLTVSSASASDILTDFAVSPEQLHVVPLGVDTKLFQPREGRVRNRIIAIASADVPLKGVSHLLHAVARLRVERDVELQLVTKLEPNGPTEKLIAELGISDIVHTSSGLSDEELAALLASAEVACIPSLYEGFSLPAVEAMASGTPIVASRAGALPEVVGPDGECARLVTPADVDELTAVLGRLLDSPRELRRLGDNGRRRAVEVFSWQSVAAQTVAVYEKAIARVAAC
notes: as for B1
Km [3]: 2780 ± 450 µM
kcat/Km [3]: 9 ± 2 M⁻¹ s⁻¹
Km [1]: 130 ± 30 µM
kcat/Km [1]: 362 ± 68 M⁻¹ s⁻¹
Km [2, 5]: 280 ± 50 µM
kcat/Km [2, 5]: 171 ± 33 M⁻¹ s⁻¹
